One assay concerns the target T1, ADO-Y87F (Homo sapiens, UniProt Q96SZ5, Y87F).
T1 construct: Full-length human ADO (Uniprot ID: Q96SZ5) was cloned; made in house; host or cells: E. coli Rosetta2(DE3)
In words: SPR binding of substrate peptides to ADO variant. From the text: (§1) Having verified the accuracy of the substrate analogue-bound crystal structures using MD simulations, key active site residues were mutated to assess their impact on binding and activity using SPR and LCMS. They were chosen based on their proximity to the substrate moieties and their conservation across species, including plants, where NCOs are called plant cysteine oxidases (PCOs; Fig. 5)[9],[10]. Two representative substrates, RGS5_2-15 and IL32_2-15 (a synthetic peptide corresponding to the methionine excised N-terminus of IL32, residues 2–15), were tested to compare interactions with different amino acid sequences.
(§2) SPR measurements were made using a Biacore T200 (Cytiva) instrument and data were analysed using the Biacore Insight Evaluation Software. Biotinylated-ADO was immobilised on a Biotin CAP chip (Cytiva) with a target density of ∼2500–3000 RU and peptide/protein substrates were injected over the chip. Experiments were conducted at 4 °C using both multi-cycle (fit using the equilibrium steady state affinity 1:1 binding model) and single-cycle kinetics mode (fit using a 1:1 binding model). A buffer comprising 20 mM HEPES pH 7.5, 500 mM NaCl, 10 mM DTT, and 0.1% (v/v) tween-20 was used as the running buffer at a flow rate of 50 μL/minute.
(§3) Supplementary Figure 20. SPR analysis of ADO variants with RGS5 peptide. (Left) Representative SPR sensorgram for the titration of RGS52-15 with amino acid substituted ADO. (Right) Fits of the equilibrium responses from the sensorgram in the left panels to a 1:1 binding model. The Kᴅ values are shown (Kᴅ given as the geometric mean of a minimum of three independent SPR measurements (n=3) with standard error). […] The […]
(§4) sensorgram is shown in red and the fit to the data is shown in black. The concentrations of RGS52-15 used in the titration are 25.6 nM, 64 nM, 160 nM, 400 nM, 1000 nM. The Kᴅ value is shown (Kᴅ given as the geometric mean of a minimum of three independent SPR measurements). Source data are provided as Source Data file.
(§5) (1 picture or pasted object on this page, not shown here)
(§6) Supplementary Figure 21. SPR analysis of ADO variants with IL32 peptide. (Left) Representative SPR sensorgram for the titration of IL322-15 with amino acid substituted ADO. (Right) Fits of the equilibrium responses from the sensorgram in the left […]
(§7) sensorgram is shown in red and the fit to the data is shown in black. The concentrations of IL322-15 used in the titration are 25.6 nM, 64 nM, 160 nM, 400 nM, 1000 nM. The Kᴅ value is shown (Kᴅ given as the geometric mean of a minimum of three independent
On the technique in general: SPR reads the build-up and loss of mass on a sensor chip optically.

Assay [1] addresses T2, ADO-I109A (Homo sapiens, UniProt Q96SZ5, I109A).
T2 construct: Full-length human ADO (Uniprot ID: Q96SZ5) was cloned; made in house; host or cells: E. coli Rosetta2(DE3)
As to the kind of experiment: SPR binding of substrate peptides to ADO variant.
Text: as §1, §2, §3, §4, §5, §6, §7

In the next assay the test system is ADO-D206A. In words: SPR binding of substrate peptides to ADO variant. Set-up: species or system human.
Text: as §1, §2
Supplementary Figure 20. SPR analysis of ADO variants with RGS5 peptide. […]

The next assay has as its target T3, ADO-D206N (Homo sapiens, UniProt Q96SZ5, D206N).
T3 construct: Full-length human ADO (Uniprot ID: Q96SZ5) was cloned; made in house; host or cells: E. coli Rosetta2(DE3)
T3 sequence (Q96SZ5 1-270 D206N): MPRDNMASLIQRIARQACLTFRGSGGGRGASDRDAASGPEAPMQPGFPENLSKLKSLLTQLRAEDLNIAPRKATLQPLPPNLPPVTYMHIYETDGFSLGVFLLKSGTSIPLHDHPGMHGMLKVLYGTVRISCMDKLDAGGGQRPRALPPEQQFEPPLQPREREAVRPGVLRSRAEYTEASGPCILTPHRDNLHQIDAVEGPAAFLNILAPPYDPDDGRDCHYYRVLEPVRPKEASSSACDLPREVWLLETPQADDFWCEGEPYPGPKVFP
In words: SPR binding of substrate peptides (native and oxidised) to ADO variant. To be noted: up to 100 μM.
Text: as §1
ADO cannot bind oxidised peptide or protein sequences (i.e. those bearing Nt-Cys sulfinic acid/sulfinate)[36]. To explore whether ADO-D206 plays a role in product release through protonation or charge repulsion, the binding of oxidised RGS5_2-15 and IL32_2-15 to ADO-D206N was monitored by SPR (Supplementary Fig. 22). […] Given its position in the active site (and the fact that many ADO-D206 variants bind substrate), this implies that ADO-D206 contributes to ADO activity through an interaction with O2 during turnover.
SPR measurements were made using a Biacore T200 (Cytiva) instrument and data were analysed using the Biacore Insight Evaluation Software. […]

For another assay, the target named is T4, ADO-Y212A (Homo sapiens, UniProt Q96SZ5, Y212A).
T4 construct: Full-length human ADO (Uniprot ID: Q96SZ5) was cloned; made in house; host or cells: E. coli Rosetta2(DE3)
T4 sequence (Q96SZ5 whole entry Y212A): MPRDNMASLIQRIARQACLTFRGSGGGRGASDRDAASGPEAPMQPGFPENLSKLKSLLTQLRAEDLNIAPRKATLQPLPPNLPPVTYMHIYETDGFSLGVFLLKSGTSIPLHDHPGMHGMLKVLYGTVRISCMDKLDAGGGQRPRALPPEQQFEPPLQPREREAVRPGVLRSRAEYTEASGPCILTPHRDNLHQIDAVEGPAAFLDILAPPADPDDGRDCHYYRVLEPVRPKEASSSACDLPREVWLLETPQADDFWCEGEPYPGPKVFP
In words: SPR binding of substrate peptides to ADO variant.
Text: as §1, §2, §3, §4, §5, §6, §7

Assay [2] addresses ADO-D206N, N-terminally His-tagged and biotinylated (human) (UniProt Q96SZ5). As to the kind of experiment: SPR; biotinylated ADO or ADO mutant immobilised on a Biotin CAP chip (~2500-3000 RU), substrate peptide injected; Biacore T200, 4 °C; 20 mM HEPES pH 7.5, 500 mM NaCl, 10 mM DTT, 0.1% tween-20; 50 µL/minute; multi-cycle or single-cycle mode not given; each cell is one of three independent measurements.

Assay [3] has as its target 2-aminoethanethiol dioxygenase (ADO), full-length human, N-terminally His-tagged and biotinylated (pQE80L-Navi-ADO) (human) (UniProt Q96SZ5). The description is as above.
The target of assay [4] is T5, ADO-I109A (human, UniProt Q96SZ5 1-270, I109A, biotin).
T5 construct: 2-aminoethanethiol dioxygenase (ADO), human, UniProt Q96SZ5, full length; Made by site-directed mutagenesis of the SPR construct; source: E. coli Rosetta2(DE3), purified (Ni-NTA, SEC); not shown: biotinylation tag (from the vector pQE80L-Navi), N-terminal, kept
T5 sequence (looked up): T3 sequence (Q96SZ5 1-270 D206N) with I109A, N206D
In words: SPR; biotinylated ADO (wild type or mutant) immobilised on a Biotin CAP chip, substrate peptides injected; 4 °C; 20 mM HEPES pH 7.5, 500 mM NaCl, 10 mM DTT, 0.1% tween-20; multi-cycle or single-cycle mode not given. The settings on record: both partners purified.

Assay [5] concerns the target T6, 2-aminoethanethiol dioxygenase (ADO), full-length human, N-terminally His-tagged and biotinylated … (human, UniProt Q96SZ5 1-270, biotin (biotinylated during expression, 0.2 mM biotin added)).
T6 construct: 2-aminoethanethiol dioxygenase (ADO), human, UniProt Q96SZ5, full length; Immobilised through its biotin on a Biotin CAP chip for SPR; also called wild type ADO; Biotinylated-ADO; source: E. coli Rosetta2(DE3), purified (Ni-NTA, SEC); not shown: biotinylation tag (from the vector pQE80L-Navi), N-terminal, kept
T6 sequence (looked up): T3 sequence (Q96SZ5 1-270 D206N) with N206D
In words: SPR; single-cycle kinetics (1:1 binding model); biotinylated ADO immobilised on a Biotin CAP chip (~2500-3000 RU), cyclic peptide injected; Biacore T200, 4 °C; 20 mM HEPES pH 7.5, 500 mM NaCl, 10 mM DTT, 0.1% tween-20; 50 µL/minute; each cell is one of three independent measurements. To be noted: both partners purified.

Assay [6] concerns the target 2-aminoethanethiol dioxygenase (ADO), wild type, biotinylated (pQE80L-Navi-ADO) (human). As to the kind of experiment: SPR; single-cycle kinetics (SCK), 1:1 binding model; biotinylated ADO or variant immobilised on a Biotin CAP chip, peptide injected at 25.6, 64, 160, 400, 1000 nM; 4 °C; 20 mM HEPES pH 7.5, 500 mM NaCl, 10 mM DTT, 0.1% (v/v) tween-20; 50 μL/minute.

As a reminder, the KD is a measure of binding affinity in units of concentration. Read a low KD as tighter binding. The Kd is the free concentration of one partner at which half of the binding sites on the other are occupied at equilibrium, for simple one-to-one binding. A higher Kd goes with lower affinity.

Substitutions are numbered along the chain they refer to. Names and notes keep the numbering of the source. Values joined by “and” are separate entries in the source; they are usually repeats but may differ in a detail not shown here. Equal values may be shown once. Where a SMILES comes first, the peptide text is derived from it. Bridges are numbered along the chain shown (N, C = ends). Where no end group is shown, it is not given here. [ ]: non-standard residue; d: D form.

T2 sequence (Q96SZ5 whole entry I109A): as the sequence (Q96SZ5 whole entry Y212A) above, with I109A, A212Y counted along it
T1 sequence (Q96SZ5 whole entry Y87F): as the sequence (Q96SZ5 whole entry Y212A) above, with Y87F, A212Y counted along it

For the molecule `CC(C)C[C@H](NC(=O)CNC(=O)[C@H](CCCCN)NC(=O)[C@@H](N)CS)C(=O)N[C@@H](C)C(=O)N[C@@H](C)C(=O)N[C@@H](CC(C)C)C(=O)N1CCC[C@H]1C(=O)N[C@@H](Cc1c[nH]cn1)C(=O)N[C@@H](CO)C(=O)N[C@@H](CS)C(=O)N[C@@H](CC(C)C)C(=O)N[C@@H](CCC(=O)O)C(=O)N[C@@H](CCCNC(=N)N)C(N)=O` [14-mer RGS5] (H-CKGLAALPHSCLER-NH2; C-terminus assumed), the KD at ADO-Y87F (replicate 1) and on ADO-Y87F (replicate 3) was 339 nM each time. On ADO-I109A [1], the “fold increase in KD relative to wild type ADO” value turned out to be 2 fold. The “binding to ADO-D206A (in words)” value with ADO-D206A is “no binding”.

For “oxidised IL32_2-15: IL32_2-15 bearing Nt-Cys sulfinic acid/sulfinate, obtained through pre-incubation with ADO ([Cys sulfinic acid]FPKVLSDDMKKLK)”, the “binding of oxidised peptide to ADO-D206N (in words)” value with ADO-D206N was “No association was observed”.

Take `CSCC[C@H](NC(=O)[C@H](CC(=O)O)NC(=O)[C@H](CC(=O)O)NC(=O)[C@H](CO)NC(=O)[C@H](CC(C)C)NC(=O)[C@@H](NC(=O)[C@H](CCCCN)NC(=O)[C@@H]1CCCN1C(=O)[C@H](Cc1ccccc1)NC(=O)[C@@H](N)CS)C(C)C)C(=O)N[C@@H](CCCCN)C(=O)N[C@@H](CCCCN)C(=O)N[C@@H](CC(C)C)C(=O)N[C@@H](CCCCN)C(N)=O` [14-mer IL32] (H-CFPKVLSDDMKKLK-NH2; C-terminus assumed): the KD at ADO-Y212A (replicate 2) and on ADO-Y212A (replicate 3) was 24700 nM each time. On ADO-I109A [1], the “fold increase in KD relative to wild type ADO” value was 35 fold. Moreover, the “binding to ADO-D206A (in words)” value in the assay with ADO-D206A is on record as “no binding”.

In the case of “IL32(2-15), synthetic peptide corresponding to the methionine excised N-terminus of IL32, residues 2-15 (from UniProt P24001 2-15)”, the Kd was 68.4 nM and 73.3 nM and 67.5 nM in assay [2]; 372 nM and 449 nM and 573 nM in assay [3].

For “oxidised RGS5_2-15: RGS5_2-15 bearing Nt-Cys sulfinic acid/sulfinate, obtained through pre-incubation with ADO ([Cys sulfinic acid]KGLAALPHSCLER)”, the “binding of oxidised peptide to ADO-D206N (in words)” value with ADO-D206N is recorded as “No association was observed”.

As for “RGS5(2-15), synthetic peptide corresponding to the methionine excised N-terminus of RGS5, residues 2 to 15 (from UniProt O15539 2-15)”, the Kd was 149 nM and 155 nM and 152 nM in assay [2]; 609 nM and 637 nM and 675 nM in assay [3].

B1: IL32_(2-15), synthetic peptide corresponding to the methionine excised N-terminus of IL32, residues 2-15 (peptide, UniProt P24001 2-15, looked up)
peptide: CFPKVLSDDMKKLK
notes: interleukin 32 (IL32), residues 2-15 (methionine excised N-terminus); peptide synthesis is in the supplementary methods; source: synthetic peptide
With B1, in the assay with ADO-I109A [4], the “fold increase in KD relative to wild type ADO” value stood at 35 fold.

B2: CP6-L8K-Cys (peptide)
peptide: {CH2CO}-YIVKTFWK(Cys)GSHRQC
modifications: thioether N-14
notes: the substitution L8K is to be applied, Cys on the sidechain amine of K8; Branched peptide: the Cys is not in the main chain; source: synthetic peptide
On to B2, for which the Kd in assay [5] was 11 nM and 13.1 nM and 13.7 nM; in assay [6], 13 nM.

B3: CP6-L8K-Ser (peptide)
peptide: {CH2CO}-YIVKTFWK(Ser)GSHRQC
modifications: thioether N-14
notes: the substitution L8K is to be applied, Ser on the sidechain amine of K8; Branched peptide: the Ser is not in the main chain; also called CP-L8K-Ser; source: synthetic peptide
Take B3: the Kd in assay [5] is 17.2 nM and 20.6 nM and 26.8 nM; in assay [6], 21 nM.

B4: RGS5_(2-15), synthetic peptide corresponding to the methionine excised N-terminus of RGS5, residues 2 to 15 (peptide, UniProt O15539 2-15, looked up)
peptide: CKGLAALPHSCLER
notes: RGS5, human, residues 2 to 15 (methionine excised N-terminus); peptide synthesis is in the supplementary methods; source: synthetic peptide
For B4, the “fold increase in KD relative to wild type ADO” value with ADO-I109A [4] is 2 fold.

The values are drawn from paper PMC12098869, “An mRNA-display derived cyclic peptide scaffold reveals the substrate binding interactions of an N-terminal cysteine oxidase” (Nature Communications, 2025).
